Measured values as given in paper doi:10.1101/2021.01.28.428610.
pKd: −log10 of the molar value.

Target: Cg1978-C-His (Gip with a C-terminal His tag) (Corynebacterium glutamicum ATCC 13032 (CGP3 prophage))
Assay: SPR

For “GyrA-N-Strep (C. glutamicum DNA gyrase subunit A with an N-terminal Strep-tag) (from UniProt Q8NUC6 1-856) (natural protein)”, the pKd was 8.27, the koff was 0.00092 s⁻¹ and the kon was 97000 M⁻¹ s⁻¹.
